# Assay results reported in publication doi:10.1101/2020.02.28.970301.
# T1: MBP-RAMP1.24-111-(GS)5-CLR.29-144-H6 (human), O60894
# T1 chain: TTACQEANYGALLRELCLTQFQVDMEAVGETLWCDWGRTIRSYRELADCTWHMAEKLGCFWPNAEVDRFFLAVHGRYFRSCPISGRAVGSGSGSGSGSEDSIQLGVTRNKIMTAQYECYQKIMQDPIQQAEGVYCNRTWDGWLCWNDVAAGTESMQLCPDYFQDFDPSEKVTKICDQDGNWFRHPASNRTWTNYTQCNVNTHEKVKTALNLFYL
# Columns and labels:
# [1] = target: MBP-RAMP1.24-111-(GS)5-CLR.29-144-H6 (human) (UniProt O60894); experiment: fluorescence polarisation
# [2] = target: MBP-RAMP3.25-111-(GS)5-CLR.29-144-H6 (human) (UniProt O60896); experiment: fluorescence polarisation
# [3] = target: MBP-RAMP2.55-140[L106R]-(GS)5-CLR.29-144-H6 (human) (UniProt O60895); experiment: fluorescence polarisation
# [4] = target: RAMP3:CLR full-length receptor complex (AM2 receptor) (human) (UniProt O60896)
# Chain of RAMP3:CLR full-length receptor complex (AM2 receptor) (human) (O60896 24-148, chain 1 of 2): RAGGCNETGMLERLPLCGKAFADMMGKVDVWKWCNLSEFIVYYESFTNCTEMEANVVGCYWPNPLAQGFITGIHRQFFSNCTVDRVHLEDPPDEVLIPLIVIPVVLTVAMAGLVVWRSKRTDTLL
# Chain of RAMP3:CLR full-length receptor complex (AM2 receptor) (human) (Q16602 23-461, chain 2 of 2, further chain): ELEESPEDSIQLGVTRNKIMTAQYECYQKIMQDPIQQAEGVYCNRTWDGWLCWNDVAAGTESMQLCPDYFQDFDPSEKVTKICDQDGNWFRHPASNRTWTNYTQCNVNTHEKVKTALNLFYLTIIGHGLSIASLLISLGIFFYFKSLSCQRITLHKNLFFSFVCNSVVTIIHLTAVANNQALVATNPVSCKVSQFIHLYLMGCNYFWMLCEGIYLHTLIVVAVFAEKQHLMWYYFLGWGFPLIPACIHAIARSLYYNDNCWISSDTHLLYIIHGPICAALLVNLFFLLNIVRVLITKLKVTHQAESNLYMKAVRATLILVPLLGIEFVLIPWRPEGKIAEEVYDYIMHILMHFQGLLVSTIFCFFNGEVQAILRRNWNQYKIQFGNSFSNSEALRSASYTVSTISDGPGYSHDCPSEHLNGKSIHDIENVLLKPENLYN
# [5] = target: RAMP2:CLR full-length receptor complex (AM1 receptor) (human) (UniProt O60895)
# Chain of RAMP2:CLR full-length receptor complex (AM1 receptor) (human) (O60895 43-175, chain 1 of 2): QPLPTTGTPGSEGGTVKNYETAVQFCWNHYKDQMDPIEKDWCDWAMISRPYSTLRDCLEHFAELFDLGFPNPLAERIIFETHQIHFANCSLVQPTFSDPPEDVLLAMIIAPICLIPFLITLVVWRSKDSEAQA
# Chain of RAMP2:CLR full-length receptor complex (AM1 receptor) (human) (Q16602 23-461, chain 2 of 2, further chain): as the sequence (Q16602 23-461, chain 2 of 2, further chain) above
# [6] = target: RAMP1:CLR full-length receptor complex (CGRP receptor) (human) (UniProt O60894)
# Chain of RAMP1:CLR full-length receptor complex (CGRP receptor) (human) (O60894 27-148, chain 1 of 2): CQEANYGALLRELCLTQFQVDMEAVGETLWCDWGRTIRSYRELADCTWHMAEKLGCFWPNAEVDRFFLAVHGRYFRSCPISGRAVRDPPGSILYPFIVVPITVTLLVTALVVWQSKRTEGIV
# Chain of RAMP1:CLR full-length receptor complex (CGRP receptor) (human) (Q16602 23-461, chain 2 of 2, further chain): as the sequence (Q16602 23-461, chain 2 of 2, further chain) above
# [7] = target: T1, MBP-RAMP1.24-111-(GS)5-CLR.29-144-H6 …; experiment: fluorescence polarisation
molecule,measurement,setting,value
AM2/IMD S43G/H45W (peptide),pKI,[1],4.75
AM(37-52) S48G/Q50W (peptide),fold increase in affinity against Q50W,[2],6 fold
same,fold increase in affinity against Q50W,[1],6 fold
same,fold increase in affinity against Q50W,[3],13 fold
CGRP(8-37) N31D/S34P/K35W/A36S (peptide),cAMP antagonism in COS-7 cells; estimated receptor residence time,[4],11 h
same,cAMP antagonism in COS-7 cells; estimated receptor residence time,[5],5.2 h
same,cAMP antagonism in COS-7 cells; estimated receptor residence time,[6],12.5 h
AM(37-52) S45R/K46A/S48G/Q50W (peptide),fold decrease in affinity against S45R/K46L/S48G/Q50W,[2],10 fold
same,fold decrease in affinity against S45R/K46L/S48G/Q50W,[1],10 fold
same,fold decrease in affinity against S45R/K46L/S48G/Q50W,[3],10 fold
AM(37-52) S45R/K46L/Q50W (peptide),fold increase in affinity against K46L/Q50W,[2],5 fold
same,fold increase in affinity against K46L/Q50W,[1],5 fold
same,fold increase in affinity against K46L/Q50W,[3],17 fold
AM S48G (peptide),fold increase in affinity against wild-type AM,[3],5 fold
AM(22-52) S48G/Q50W (peptide),"antagonism of cAMP signalling in COS-7 cells, apparent KB (Gaddum/Schild)",[5],80 pM
GPAGRQDSAPVDPSSPWSY (modifications not checked) [AM2/IMD H45W],pKI,[7],6.08
